Measured values taken from the DeepSol protein solubility set.

assay: soluble on expression in E. coli; label from the status in PepcDB or PDB records

| Sequence | soluble on expression in E. coli |
| --- | --- |
| ETISAFSNQVIQRGATGDDVVELQARLQYNGYYNGKIDGVYGWGTYWAVRNFQDQFGLKEVDGLVGAKTKQTLICKSKYYREYVMEQLNKGNTFTHYGKIPLKYQTKPSKAATQKARQQAEARQKQPAEKTTQKPKANANKQQNNTPAKARKQDAVAANMPGGFSNNDIRLLAQAVYGEARGEPYEGQVAIAAVILNRLNSPLFPNSVAGVIFEPLAFTAVADGQIYMQPNETAREAVLDAINGWDPSEEALYYFNPDTATSPWIWGRPQIKRIGKHIFCE | not soluble |
| MAFSMLFTGHAECVKFVKKFNLPLLVTGGGGYTKENVARCWTVETGILLDTELPNEISENDYIKYFAPDFSLKIPGGHIENLNTKSYISSIKVQILENLRYIQHAPSVQMQEVPPDFYIPDFDEDEQNPDVRVDQRSRDKQIQRDDEYFDGDNDNDAS | not soluble |
| MKLDAKSTIETGKAILGIELGSTRIKAVLIDQENKPIAQGSHTWENQLVNGLWTYSIDAIWSGLQDCYADLRSNVKKLYDTEIETLAAIGVSAMMHGYMPFNEKEEILVPFRTWRNTNTGRAAAELSELFVYNIPLRWSISHLYQAILDNEAHVKDIKFLTTLAGYVHWQITGEKVLGIGDASGMLPIDPTTNNYSAEMVAKFNNLIASKEYSWKLEDILPKVLSAGENAGVLTPEGCKKLDASGHLKAGIPVCPPEGDA | not soluble |
| GPGSMSLVESQKGMTDLIPCNEQCGGDYGNYSFGQGDLDVTVTVPLPENTTKKMLLVQITASKLIVGLRGKPPIISGDFYRPVKASECTWCIEDKRLLVINMVKTNSQHEEWWPCVVVGERQIDMKTLKPPSKHVSELDESAQATIAKMMFDQRQKMQNLPTSEEMRLQEMMRAAQGAK | soluble |
| MQLKRVAEAKLPTPWGDFLMVGFEELATGHDHLALIFGDISGDKPVLSRVHSECLTGDALFSLRCDCGFQLEVALTRIAEEGRGVLIYHRQEGRNIGLLNKIRAYALQDLGADTVEANHQLGFAADERDFTLCSDMYKLLGIKAVRLLTNNPKKVEILTQAGINIVERVPLIVGENPKNEHYLATKAAKMGHLLTK | not soluble |
| MLVVSIAGSPSVRSRSGVLLERARDWLSRRGVEVASHQVLDFPAEDLLRARLDSPPVLALAEQIGRADGLLVATPVYKASFSGALKVLLDLLPERALEHKVVLPFATGGSSAHMLAVDYALKPVLAALKAQEVLHGVFAVDKQIAYATESDPARLEPVLEQRLENALETFHLALSRRPQPIDPQLLNERLVNARWSI | soluble |
| PFWSCLHNQLWNYREADQNRINRNQLPLYGVEGRFERMNQHPNAGSHSFSIGVTEVLNSNLLIELRADDIEYVYQRSPGKIISVIIPTFEALTQFGVATITTQNTGEVEASYSLTFDCSTGVTLMEEQYFIIKPKETSIRSFKIYPTTNQAAKYTCSAILKDSDFSEVDRAECQFSTMATVLDNGSQITPFQPPKSSINDFFESIESIGKKLWEGLRDFITGKACRRKCSSFFDFSCHIQYIC | not soluble |
| MSKTFRVSKVTSGNSKAIQQTKPITILLMGVDTGSKGRKETWEGNSDTMILVTVNPKTKRTTMTSLERDLLADVEGSGEAKLNSAYAEGGADLAISTIQKVLDIDIDYYALINMHGMIDLVDAVGGIEVTNHFDFPISIAENEPEFQAKVEPGTHKINGEQALVYSRMRYDDPDGDYGRQKRQREVIQKIVAKLLKMDSIGSYKKILSAVSSNVQTSINLGDSTTLRGLMGYSEALKNIKSYQLAGSDAMINGGSYQVASTEDILKVQNRIKKEVGKKGVSESKLKTSLVLNDFGTSSYVSDDFVNSTGSYEAGPSEATGGGSVSTYYGGTTYGNSYTENTSNYVQDQATTAPTINYNGSGVTTYNLVPAAQLEHHHHHH | soluble |
| MGCSHSKNKNSKSKSAILKKEHPLERSIHHNRVAHFDETQPTSQSTSVESEELNVKHYSKTLLNDTVEPTHQKTSAHVPEKSIKKQEVKQEVKKHETTTVVHTNVHVPKPTHKLPQASEIPIERMGSDPHTAIAPTYQQKQFATSTYYPMPTIGEKQKSPEKAKPARKVDNTDEKKRKKDQNEKPVINGPNVRHQLTPEDLEYIKRSVQQRNERRAFMMAHRNETDDTLYELEVRMPEKDYTNRMEVGQNYRVC | not soluble |
| MGSDKIHHHHHHMKLVCAQSDLSTNLSLVNRAVPSRPTHPVLANVLLQADAETNQVSLTAFDLSLGIRTSFNADVWQSGAIALPAKLLVDITSRLPEGEITLDDESATDGTATGEGLIVSLTPKTGKYQLRAMGAEEFPELPLIENTTAIYLTATSLIEGLRGSLFATSGDETKQVLTGVHLTVKQDTLEFAATDGHRLAVVETTNERPLEDNDQQLEVTVPARALRELERMLAHNAASEEPIALYLDQGQVIFAWQNQRLTSRTLEGQYPAYRQLIPRQFERQVTIERRQFLSTLERIAVLADQKNNIVKLTIDSTAQELTLSCEAQEMGSGRESMNAEIAGEDIEIAFNVKYLMEGLKALPSPEIQMHINQNLTPVIFTPLGGLKMTYLAMPVQLRN | not soluble |
| MKIVAITSCPNGIAHTYMAQEKLEQVAKEMGVDIKVETQGGVGAENVLTTQDIEEADGVIIAADKQVDLSRFVGKRLINENVREGIHNPRGLIQRIINQDAPIYQSETN | not soluble |
| MAKEIYSKYPMVKYLRKEALPTALCPGCGGGTVLNAFANAIDQLKIDPRDLVVVSGIGCSAWIASPYFLADTLHTTHGRAIAFATGVKVGLPDKYVVVISGDGDLASIGGNHLIHAARRNIDITVILVNNFIYGMTGGQVAPTTPFGAITTTTPYRNIEHPLNIAETVAAAGASYVARWTTAHVYQLIESIKKAITTKGFSLVEVISQCPVQFGRRNKMKQPAEMLRWFLKNSVPISKAKNMSEEELEGKFIVGEFVNRRKPEFVGELNKLIREVQSKFKEE | not soluble |
| MGSDKIHHHHHHMAAKLFGIMMINVQSIELSIVNLRTLRQVERVRSDVSLGEDIYDQHTIDYDSVEQAAQALSGFVQIMNDYGVKDYHLWGSWSLSSANNADYIQDQLLVRTGLKIDWLSSSQETYLRSVAVAVHFPRFKQMITKPTYLLGINSGSVGISHYDQSNFVFSRSLRLGPVRIAEVLEDLQSSVPNYVEVLDDYISSQIVDFGRFLPGRRDQPSNVVMLGVAPFATLFRQQQSKAGVEELSKADFQALYEDVLNASDQYLMDKYEVDEEDVRLIVPELLLINELLQLTNAEKIWLGNVTVLDGLIIQEAIKLGYKKYNFNDQIVTAAKNIADRYNVEPKHRDLVTKFSLHLFDQLKPLHHLGKRERLLLQVAAIVHDVGSYIDPHQHYLHSDYILQATELMGLTDTEKRMVALISRYHSAQTPSKDIRHFGHLQVEQRLLVSKLSAILRIADALDDGRKQKIDKISVSIRNPRVIITCFAHDDLFLENWVFAQKAEFFKEVFGLTPVIKLRGVR | not soluble |
| MLTACNGSRKGDANLSDNPLLQSSALFMEAPEFDKIKTEHFLPAFEAGMEQQLAEIDSIVNNSEAPTFENTLVAMERSGQTLKRVSNVFFGLTGANTNDELQKIEEKVSPLLAAHSDAIYLNDKLFQRVKAVYESDQSAIEPEGQKLIQEYYDAFVRAGANLSAEDKAKLMELNKEEASLTTEFGNKLIAATNAAAVIVGSKDSLDGLSETEIAKAASDAKAAGHEGKYLLNITNTTQQDYLSVLNDRTIRQRVLEASIHRTDKGDANDTQSIVLRLARLRAQKARLLGFPNYAAWKLQNQMANNPETVLAFVKSIATPYAPQAQKDAAELQAYARSKGFEGDLTAADWNYYADKLRKEKFGLDENEVKQYFVTDSVLKNGVFYAANKLYGLTFKERTDLPVYAEDVRVFDVIDQDGKQLALFYTDLYRRPTKSGGAWMSNWVDQSYLLNQKPVIYNVCNYAKGVDGQPSLINYDEVTTLFHEFGHALHGMFAAQQYPLLSGTNVARDFVEMPSQLNEHWAMDPEVFANYAKHWKTQEPMPAELVKKIQDASDFNQAYSMGENLAAVSLDQAWHTLTVEEAEAITDVAKFEEEALRKVGLYNPQIPPRYRSSYFRHIWSNGYASGYYAYLWTEVLDHNVYQWMVQNGGMTPQNGQRLRDMILSRGNTQDFNVIFTAFTGLQKPDIRDLLRARGLM | soluble |
| MGSDKIHHHHHHMIRNKAFVVRLYPNAAQTELINRTLGSARFVYNHFLARRIAAYKESGKGLTYGQTSSELTLLKQAEETSWLSEVDKFALQNSLKNLETAYKNFFRTVKQSGKKVGFPRFRKKRTGESYRTQFTNNNIQIGEGRLKLPKLGWVKTKGQQDIQGKILNVTVRRIHEGHYEASVLCEVEIPYLPAAPKFAAGVDVGIKDFAIVTDGVRFKHEQNPKYYRSTLKRLRKAQQTLSRRKKGSARYGKAKTKLARIHKRIVNKRQDFLHKLTTSLVREYEIIGTEHLKPDNMRKNRRLALSISDAGWGEFIRQLEYKAAWYGRLVSKVSPYFPSSQLCHDCGFKNPEVKNLAVRTWTCPNCGETHDRDENAALNIRREALVAAGISDTLNAHGGYVRPASAGNGLRSENHATLVV | not soluble |
| VLGVTPDTEVVKPTRTQAERTAAMRTKLLDAAVDSLVELGYARTTTQGIARRAGVSRGAQLHHFPTKESLVVAAVEHLVDKRMEEILAADVDAGRGVDVLADAFSGPLFYAALELWVAARTDPALYEATVPLERKVNDALRRGSAEVFGDRFDADTIELSIELVRGLAVSALFRTPEAEQSLRARLLPVWESKVEKS | not soluble |
| MGVEIQSPQEQSSYTVEQLVALNPFNPEILPDLENYVNVTSQTYSLEVNLCLLRLYQFEPERMNTHIVARILVKALMAMPTPDFSLCLFLIPERVQMEEQFKSLIVLSHYLETGRFQQFWDEAAKNRHILEAVPGFEQAIQAYASHLLSLSYQKVPRSVLAEAVNMDGASLDKFIEQQVTNSGWIVEKEGGSIVLPQNEFNHPELKKNTGENVPLEHIARIFPILG | not soluble |
| MSLKLFPQFDGISLKDRFFLLESFKVDVLANNVYYTESSLVPFLSKMKGVLARDGNIKHYLAEGKRICVLGDVHGSPMDVSAFYDLCMLKDVQLQCFQEVGDDRGSQFTMDLSSVYVFLGDYVDRGSRGLACVLFIYVLKYLYPRNVLLLRGNHECDAMNRIYGFTKEIYKYYGSHSPIYQAIQDTFAAIPYFFRLIYLPQSLCRALERFCNRVIPSASSSTRWTNSEIMCLASMVSSVTSWAGQAGATNEAKLDDLADSQEAHMLKCRLEEESLTIFCCHGGPPCVYTEYGRQLDLYLGIDSYENILQRSLTIVDPLAGELTWNDPAPHRFKSPSTLYEPSQRRLGYRYSYDLFRTWCKHTGVDLVLRGHEVALDGVHQDFQYAFEPKQLGGPNQELEYWFSVSTLRETPRHFTVFSSSFYEHLTNHGAAAIIRFEVPVDGVAPALVIRCFTLSEGHHHHHH | not soluble |
| MGSDKIHHHHHHMSNLLEVNSLNVQFNYDETTVQAVKNVSFELRKKHILGIVGESGSGKSITAKSILGLLPDYPDHTLTGEIIFNGQSLNNLSTSALQQIRGKDISMIFQDPLSSLNPRLTIGKQITEVLFQHKRVSKSEAKSMTINILEKVGIKHATRQFDAYPHELSGGMRQRVMIAMALILKPQILIADEPTTALDASTQNQLLQLMKSLYEYTETSIIFITHDLGAVYQFCDDVIVMKDGSVVESGTVESIFKSPQHTYTKRLIDAIPDIHQTRPPRPLNNDILLKFDRVSVDYTSPSGSLYRAVNDINLAIRKGETLGIVGESGSGKSTLAKTVVGLKEVSEGFIWYNELPLSLFKDDELKSLRQEIQMIFQDPFASINPRFKVIDVIKRPLIIHGKVKDNDDIIKTVVSLLEKVGLDQSFLYRYPHELSGGQRQRVSIARALAVEPKVIVCDEAVSALDVSIQKDIIELLKQLQLDFGITYLFITHDMGVINEICDRVAVMKNGEIVELNNTEDIIKHPQSDYAKQLISEVAVIAK | not soluble |
